From the supplement of paper PMC12764529
± gives the half width of the 95% confidence interval.

Legend:
[1] = folding stability dG unfold from chymotrypsin proteolysis; higher = more stable
Method in brief: (§1)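 Unfolding free energy was derived, per protease or combined, against a sequence-predicted unfolded-state K50 and a shared folded-state K50, starting from K50 inferred by Bayesian fitting of sequencing counts. Digestion with trypsin and chymotrypsin was carried out on designed mini-proteins under 80 residues without cysteine in a PA-tagged cDNA display construct. Only designs with AlphaFold2 dimer inter-PAE above 15 were kept.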

[2] = folding stability dG unfold (combined trypsin and chymotrypsin); higher = more stable
Method in brief: as §1

[3] = folding stability dG unfold from trypsin proteolysis; higher = more stable
Method in brief: as §1

| Sequence | folding stability dG unfold [1] | folding stability dG unfold [2] | folding stability dG unfold [3] |
| --- | --- | --- | --- |
| SAGGMSLSDPRDIRKAAKLKEIEILVKELNDKGIEVKLDEISFIEGTEEITAIVTFPDGTKYEITINSAGGS [r8_277_TrMRF] | 1.02 ± 0.018 kcal/mol | 1.42 ± 0.075 kcal/mol | 1.85 ± 0.042 kcal/mol |
| SAIKGMPLEELAKHIENEMRKMHPNVKIKVEIVDVPPDYLVIEVEITVRHPNPGGQQVEFPMTIVIDLDSAG [r14_187_TrROS] | 1.5 ± 0.17 kcal/mol | 1.81 ± 0.21 kcal/mol | 1.81 ± 0.21 kcal/mol |
| SAGGKEKIILIPAKDKEKVLELLKALADEGKTVRIINLKTGKVEEVTVDELLALAEKTNEPILIEVESAGGS [r16_263_TrROS_Hall] | 2.98 ± 0.11 kcal/mol | 3.34 ± 0.21 kcal/mol | 3.69 ± 0.18 kcal/mol |
| SAGGKPPKTVTVTLTLPDGVKITIEYNEETGEVTVTIEVFKDGKLVKTITITAPSLDEALEALKKLLSAGGS [r16_55_TrROS_Hall] | 4.19 ± 0.18 kcal/mol | 3.87 ± 0.13 kcal/mol | 3.25 ± 0.23 kcal/mol |
| SAGGSAGGDTITIWIPGMPLEELRDLLKAFFPGKDVSVEYDPEHGSFVLTVNGKKITIHIMPPNSAGGSAGG [r6_609_TrROS] | 4.45 ± 0.061 kcal/mol | 4.45 ± 0.086 kcal/mol | 3.89 ± 0.1 kcal/mol |
| SAGMKEKAIDALKEFFEEEGIKVKKIVIEEKPDGTYKITVYGENGKPIFEIEVPKDVKTSEELKKLIKKSAG [r5_352_TrMRF] | 3.67 ± 0.12 kcal/mol | 3.61 ± 0.3 kcal/mol | 2.71 ± 0.52 kcal/mol |
| SAGGSGVPLKITKVEVVGDKVVLTFEVPESLGTLKLNLTFELGGKPVEVEAEFDPETKYAVVVVGGSAGGSA [r2_261_TrMRF] | 2.52 ± 0.061 kcal/mol | 2.49 ± 0.092 kcal/mol | 2.37 ± 0.051 kcal/mol |
| SAGGSAKEIKPGEKIKVRNKETGKWFEATVTEVKKLENGELYVKVEVTIDGKTYTVTIPLKDIEVVSAGGSA [r15_62_TrROS_Hall] | 4.72 ± 0.3 kcal/mol | 4.88 ± 0.55 kcal/mol | 4.3 ± 0.37 kcal/mol |
| SAGGKEVKIKIETKTLPNGVKVVKMTVELPDGKTVEMVMVENKKTGKMVMFEVKLDKNGKIVEIKAFPSAGG [r13_323_TrROS_Hall] | 3.43 ± 0.16 kcal/mol | 3.33 ± 0.41 kcal/mol | 2.66 ± 0.16 kcal/mol |
| SAGGMIPPEKLEEIAKKIAEETEPLGKVVKHLFVDPLEDEVVIIELTVYPGPKKIEIKEIKVYPPEELSAGG [r13_37_TrMRF] | 0.251 ± 0.034 kcal/mol | 0.223 ± 0.16 kcal/mol | 0.0241 ± 0.084 kcal/mol |
| SAGGGVKFELVDIESDGDGKYIAKIKVYNENGELIEEIEIEVKGLKNVTLTIPLINKPKKIEIKVTPESAGG [r13_427_TrMRF] | 1.51 ± 0.093 kcal/mol | 1.21 ± 0.12 kcal/mol | 0.752 ± 0.03 kcal/mol |
| SAGGMIEIIPNPPIIIVRDASTNEISVYNIDAPPGSITRVELTSDGSILIYNPATGKVLVLPKSDIKSAGGS [r16_410_TrMRF] | 1.74 ± 0.071 kcal/mol | 1.62 ± 0.077 kcal/mol | 1.33 ± 0.043 kcal/mol |
| SAGHQIVKRLARHMQEQGYPIEVDVTVEPYPDDGWVEITIDIEMQNEDGKWQPIGPITIYIPKEDANKLSAG [r5_413_TrROS] | 1.44 ± 0.11 kcal/mol | 1.34 ± 0.17 kcal/mol | 0.914 ± 0.07 kcal/mol |
| SAGGSAGGSAGGMKIVFLGKKALIENENGEVTEIPVGSLEEFEKLAEAFPDYEAVPAVPSAGGSAGGSAGGS [r10_1211_TrMRF] | 1.5 ± 0.029 kcal/mol | 1.31 ± 0.051 kcal/mol | 0.888 ± 0.025 kcal/mol |
| SAGGKTVEIKVKVKSLEELKAAIEALKKAGIKDVKVTKIELEKNEDGSLYARVTIEVEPAPEVVEEKESAGG [r13_174_TrROS_Hall] | 3.08 ± 0.073 kcal/mol | 3.15 ± 0.2 kcal/mol | 2.78 ± 0.095 kcal/mol |
| SAGGMTLRITTADGRVIEIEADSLEDALAALRTLLGLKPGDVLTVEVVVEVDGEKKTFTLTIVLPPEPSAGG [r13_145_TrROS_Hall] | 6.08 ± 0.089 kcal/mol | > 6 kcal/mol | 4.95 ± 0.14 kcal/mol |
| SAGMEYLEVKVTIEPKLPEELREKLKGKKVTVTIIVPKEMSEEEKKKLLEELRDLGVKKVEIKSLEELKSAG [r5_60_TrROS_Hall] | 1.93 ± 0.077 kcal/mol | 1.89 ± 0.11 kcal/mol | 1.65 ± 0.085 kcal/mol |
| SAGGSAGGSAGGSKYIVIRIPGSVDELIDYLRDSGFKIKIESVEYDPPNGEFYVVFKIKSAGGSAGGSAGGS [r4_315_TrROS] | 3.063 ± 0.025 kcal/mol | 2.87 ± 0.052 kcal/mol | 2.53 ± 0.073 kcal/mol |
| SAGGSAGGTIMIQFPDMDSPEEAIDQAEFFINEFMKQGNPGKPIKVTIQDPKNGQQQTFEIPLESAGGSAGG [r6_238_TrROS] | 0.244 ± 0.16 kcal/mol | -0.114 ± 0.16 kcal/mol | -0.935 ± 0.49 kcal/mol |
| SGPVPLPVEVTFEPNSETTVTLPSGRTYTVPTPPNGSATATADPATGVVTITVTSGSSTTTLTFPVPAELSA [r9_226_JUSTAS] | 0.712 ± 0.033 kcal/mol | 0.592 ± 0.051 kcal/mol | 0.361 ± 0.006 kcal/mol |
| SAGMTFPPGMTIEELKELLKKLGIKEVTVTYDKETNTVTVTVTVEGKTITITVTLPAPPVVVKEEGEEKSAG [r5_899_TrROS_Hall] | 3 ± 0.1 kcal/mol | 2.53 ± 0.17 kcal/mol | 1.77 ± 0.059 kcal/mol |

| Sequence | folding stability dG unfold [1] | folding stability dG unfold [2] | folding stability dG unfold [3] |
| --- | --- | --- | --- |
| SAGGSRIEEVAREILEKLPLKPGEPVLVEVEVDFPDGLRIRLKVEAYVDPETGEVHLKVEILEIEPVSAGGS [r16_634_TrMRF] | 2.91 ± 0.064 kcal/mol | 3.06 ± 0.069 kcal/mol | 3.24 ± 0.039 kcal/mol |
| SAGGSMLSTEPKETDDEIKVTKIYYPEEPIEVTLTTDPDTDLVTATSPSSTATIDAKTGKTTTTPSSSSAGG [r13_416_JUSTAS] | 0.876 ± 0.039 kcal/mol | 0.545 ± 0.14 kcal/mol | -0.285 ± 0.1 kcal/mol |
| SAGGITVEVEYERTEGGYYRVTVTLRDPDGNPIEIEYPMPPGDPGMTQDEMKDKAVEWALKIAQELNSAGGS [r8_123_TrROS] | 3.971 ± 0.031 kcal/mol | 3.96 ± 0.088 kcal/mol | 3.94 ± 0.12 kcal/mol |
| SFLSPGDKFKFPNGNNYRIENFDISYDPGNNNPMIEIELVPLPPPKPEDENKKDPDGKTKTENKYKYKGPSA [r9_914_TrROS] | 0.879 ± 0.5 kcal/mol | 0.968 ± 0.45 kcal/mol | 0.61 ± 0.28 kcal/mol |
| SAGTEEELVERAKELARELAEELGVEAEAEVTVDPLPDVLVVNLTVRLRLPGGETVELPLTLTFPREFLSAG [r5_609_TrMRF] | 3.3 ± 0.035 kcal/mol | 3.08 ± 0.05 kcal/mol | 2.71 ± 0.095 kcal/mol |
| SAGGSKKTYIVDSPEEIAKLIESIPEEEYVFAIKGRPDGKPVVEIYSKENIEEAIKENPEIIIPVGSAGGSA [r2_351_TrMRF] | 0.641 ± 0.068 kcal/mol | 0.479 ± 0.11 kcal/mol | 0.287 ± 0.058 kcal/mol |
| SAGGSPDPNQKPVTVRVEIMIMRPDPNGKWEMRPIEFEMTIGDVEEFLEELEKEPGYMIMVDIEIYSAGGSA [r2_270_TrROS] | 3.97 ± 0.25 kcal/mol | 3.65 ± 0.28 kcal/mol | 2.33 ± 0.13 kcal/mol |
| SAGGSAGGSAGVSPNEDVKVEVLEVKPDPETGTYTVLVKDPRTGEERTLTLTPEELAKLLSAGGSAGGSAGG [r11_894_JUSTAS] | 4.53 ± 0.073 kcal/mol | 4.56 ± 0.079 kcal/mol | 4.42 ± 0.19 kcal/mol |
| SAGGSAGGSPLAPGQTVTVRVERVDGPVVITVRNEATGETLTLTFDRPAEDLKPGDTVTVTVTSAGGSAGGS [r12_525_TrROS_Hall] | 2.897 ± 0.021 kcal/mol | 2.54 ± 0.045 kcal/mol | 2.05 ± 0.039 kcal/mol |
| SAGGSAKEIKAEVKVDPETGTVTVKVYYDGKLVAEATATVEPNGEIKEVNFFFEVDPETGKLIVTGSAGGSA [r15_770_TrMRF] | 3.07 ± 0.059 kcal/mol | 2.97 ± 0.066 kcal/mol | 2.73 ± 0.12 kcal/mol |
| SAGGSAPKNVTIEFPIMAKVPDPKWAIDEARELARKQGFENTEIENIHVNPGDPNYVMIDVKMTIPSAGGSA [r15_183_TrROS] | 0.278 ± 0.17 kcal/mol | 0.326 ± 0.24 kcal/mol | 0.249 ± 0.11 kcal/mol |
| SAGMKIEIEIVKVEVKEVNGKKVIKVEIKVKVSAEELGLSEEELKEKLEEEVEELARELAEKLNVEVVPSAG [r5_333_TrROS_Hall] | 1.36 ± 0.1 kcal/mol | 2.21 ± 0.51 kcal/mol | 2.88 ± 0.36 kcal/mol |
| SAGGAHEMEWKHEYELPPYRLKVELEWYYDPDGNPQPSIETIEIRPVPPPTIDAEDLPPEQAKENGIASAGG [r13_964_TrROS] | 1.23 ± 0.087 kcal/mol | 1.08 ± 0.38 kcal/mol | 1.13 ± 0.11 kcal/mol |
| SAGFEFPPGQEIEFKVQYTSPMPNPDGGWGPVTETYEITIEIVPVPPIPFKDPAQAEELRQKGLPPDDLSAG [r5_624_TrROS] | 1.44 ± 0.041 kcal/mol | 1.23 ± 0.14 kcal/mol | 0.546 ± 0.06 kcal/mol |
| SAGGMKITEEAIKNFPPGRWIQFRIPDDGYMVTIRVHDPGEIKINYRKFPPGNGEPREEQEHKIPLDSAGGS [r16_163_TrROS] | 0.825 ± 0.28 kcal/mol | 0.917 ± 0.27 kcal/mol | 0.845 ± 0.24 kcal/mol |
| SAGMMKRIVVTARFPADEMTLDEFVELILAKLPGVKPVRVEILSVRPRPDGSYEVTVLLLVEAPPDVDASAG [r5_682_TrMRF] | 4.216 ± 0.032 kcal/mol | 4.23 ± 0.048 kcal/mol | 4.38 ± 0.071 kcal/mol |
| SAETTTETKVEEITLEDKKATINITTYSDGSTEATITIYGNDPKVKEKVKEYIKKKDPNIKITKIETKESAG [r14_611_JUSTAS] | 3.25 ± 0.043 kcal/mol | 2.92 ± 0.093 kcal/mol | 1.85 ± 0.083 kcal/mol |
| SAGGETLEVKLKNGYLLRIDLETGKVEVRPLKPVKIELKIEVKPPPVEVKLEKEIKLEKKIEVKVEFSAGGS [r16_453_TrROS_Hall] | 2.51 ± 0.062 kcal/mol | 2.15 ± 0.18 kcal/mol | 1.82 ± 0.19 kcal/mol |
| SAMKEGQRLLVVKITIYNKNGEKVEELELVVPEEDKEKALEAAKKLAEELAKKLNLEIKIEVEEVPLPPSAG [r14_146_TrROS_Hall] | 4.02 ± 0.078 kcal/mol | 3.86 ± 0.13 kcal/mol | 3.14 ± 0.2 kcal/mol |
| SAGGSAGGSAGGSMVKISKEPDRLTITITPGNTPLVFESTEPISEEEFVEKAKKENPLISAGGSAGGSAGGS [r4_191_JUSTAS] | 1.03 ± 0.037 kcal/mol | 0.657 ± 0.17 kcal/mol | 0.215 ± 0.13 kcal/mol |
| SAGIPPDDPNDIYIVPVKITPVPDGSLQIEIIIVWPDGEVYTMEQEFDPNGNIEEMDMEPMPPEDIKESAGG [r19_285_TrROS] | 1.31 ± 0.081 kcal/mol | 1.2 ± 0.14 kcal/mol | 1.1 ± 0.1 kcal/mol |
